Source: patent publication US7968297B2, “Method for identification, isolation and production of antigens to a specific pathogen” (Intercell AG, priority 2001, dated 2011)

B1: IsaA, possibly adhesion/aggregation (protein, listed as Staphylococcus aureus)
chain: MKKTIMASSLAVALGVTGYAAGTGHQAHAAEVNVDQAHLVDLAHNHQDQLNAAPIKDGAYDIHFVKDGFQYNFTSNGTTWSWSYEAANGQTAGFSNVAGADYTTSYNQGSNVQSVSYNAQSSNSNVEAVSAPTYHNYSTSTTSSSVRLSNGNTAGATGSSAAQIMAQRTGVSASTWAAIIARESNGQVNAYNPSGASGLFQTMPGWGPTNTVDQQINAAVKAYKAQGLGAWGF
B2: extracellular matrix and plasma binding protein (protein, listed as Staphylococcus aureus)
chain: MNSNHAKASVTESVDKKFVVPESGINKIIPAYDEFKNSPKVNVSNLTDNKNFVASEDKLNKIADSSAASKIVDKNFVVPESKLGNIVPEYKEINNRVNVATNNPASQQVDKHFVAKGPEVNRFITQNKVNHHFITTQTHYKKVITSYKSTHVHKHVNHAKDSINKHFIVKPSESPRYTHPSQSLIIKHHFAVPGYHAHKFVTPGHASIKINHFCVVPQINSFKVIPPYGHNSHRMHVPSFQNNTTATHQNAKVNKAYDYKYFYSYKVVKGVKKYFSFSQSNGYKIGKPSLNIKNVNYQYAVPSYSPTHYVPEFKGSLPAPRV
B3: ORF2098 (protein, listed as Staphylococcus epidermidis)
chain: MIKKNKEELNDMEYLVTQENGTEPPFQNEYWNHFEKGIYVDKLSGKPLFTSEDKFESNCGWPSFSKALNDDEIVELVDKSFGMIRTEVRSEKANSHLGHVFNDGPKEKGGLRYCINSAAIQFIPYDKLEELGYGDLIKHFKK
B4: ORF2260 (protein, listed as Staphylococcus epidermidis)
chain: MARIATKLGYPESNSFVTNTVIEFVLHNEAYPRLYRIKTRDTNLIKISQANEISRQITNGTMTLEEAKYQLEEIYVAKRDSSLPFKGIAAAIIATSFLYLQGGRLVDIITAVLAGTIGYLVVEILDRKLHAQFIPEFIGSLVIGIISVIGHAFVPSGDLATIIIAAVMPIVPGVLITNAIQDLFGGHMLMFTTKSLEALVTAFGIGAGVSSILILV
B5: ORF2669 (protein, listed as Staphylococcus epidermidis)
chain: MHYLKKVTIYISLLILVSGCGDSKETEIKQNFNKMLNVYPTKNLEDFYDKEGYRDEEFDKDDKGTWIIRSEMTKQPKGKIMTSKGMVLHMNRNTRSTTGYYVIRKISEDNKSEIDDEEKKYPIKMVNNKIIPTQKINDNKLKNEIENFKFFVQYGSFKNSDDYKEGDIEYNPNAPNYSAQYHLSNDDYNIKQLRKRYDIKTKKTPRLLMRGAGDPKGSSVGYKNLEFTFVKNNEENIYFTDSINFNPSKGKSL
B6: ORF2671 (protein, listed as Staphylococcus epidermidis)
chain: VKHSKKLLLCISFLLITFFIGGCGFMNKDDGKETEIKQNFNKMLNVYPTKNLENFYDKEGYRDEEFDKDDKGTWIVHSKMVIEPKGKNMESRGMVLFINRNTRTSKGYFIVNEIEKDRKGRPINNKKKYPVKMKNNKIIPTKPISNDKLKKEIENFKFFVQYGNFKDIKNYKDGDISYNPNVPSYSAKYQLSNNEYNVQQLRKRYDIPTKKVPKLLLKGDGDLKGSSVGSKNLEFTFIENKEENIYFTDSVLFSPSEDNES
B7: ORF0979 (protein, listed as Staphylococcus epidermidis)
chain: MMIIVMLILSYLIGAFPSGLIIGKLFFKKDIRQYGSGNTGATNSFRVLGRPAGFIVTFLDIFKGFITVFFPLWFPVHADGVISTFFTNGLIVGLFAILGHVYPIYLKFNGGKAVATSAGVVLGVNPILLLILAIIFFSVLKIFKYVSLSSIIAAISCVIGSIIIHDYILLAVSGIVSIILIIRHKSNIVRIFKGEEPKIKWM
B8: ORF2694 (protein, listed as Staphylococcus epidermidis)
chain: MKHSSKIIVFVSFLILTIFIGGCGFINKEDSKEAEIKQNFNKTLSMYPTKNLEDFYDKEGYRDEEFDKDDKGTWIINSKMIVEPKGEEMEARGMVLRINRNTRTAKGNFIIKRITENNKGIPDVKDKKYPVKMEHNKIIPTKQIKDKKLKKEIENFKFFVQYGNFKNLKDYKDGEISYNPNVPSYSAQYQLNNYDNNVKQLRKRYDIPTNQAPKLLLKGTGDLKGSSVGYKHLEFTFVENKKENIYFTDSINFNPSRGN
B9: ORF2673 (protein, listed as Staphylococcus epidermidis)
chain: MRYLKKVTIYISLLILVSGCGNGKETEIKQNFNKMLDMYPTKNLEDFYDKEGYRDEEFDKKDKGTWIVGSTMTIEPKGKYMESRGMFLYINRNTRTTKGYYYVRKTTDDSKGRLKDDEKRYPVKMEHNKIIPTKPIPNDKLKKEIENFKFFVQYGDFKNLKDYKDGDISYNPNVPSYSAKYQLSNNDYNVKQLRKRYDIPTNQAPKLLLKGDGDLKGSSIGSKSLEFTFIENKEENIFFSDGVQFTPSEDSES
B10: ORF0442 (protein, listed as Staphylococcus epidermidis)
chain: MKKIKTISTLVAGLGIAFLGHTTHADAAENNNQQQSTYNYSTTEVSFSNSGNLYTSGQCTWYVYDKTGGKIGSTWGNANSWATAAQAAGFTVNNTPEEGAIMQSSEGAFGHVAFVESVNNDGSITVSEMNYDGGPFAISTRTISASEASSYNYIHLN
B11: ORF0355 (protein, listed as Staphylococcus epidermidis)
chain: MSKHSATLVIMFLITLLPIFQYQASAHATLEKSTPQQQGVIKDKPEAIKLEFNEPVNTKYSSVTLFDDKGKKIKDLKPITTGWSQTVVFSSEQIVNGTNTIEWHTVSADGHEVGDTFEFSVGKVRLKM
B12: CRF2729 (protein)
chain: GMKMISISDEINCLICCNCVGLCSFISSAKYIFWISISSNTVAKTSIKRGKFLVTARSIRR
B13: CRF2349 (protein)
chain: SIIVNTVSKCIKVRLVGISIATTFLNVACGFSKIRRANFSIACADVRSETPIAKTSLDKTSSSPPSILNGQSRSNQIGIFASLNLG
B14: CRF0497 (protein)
chain: LLHHLVLLHLSQLILAQLPYQELTLVRKMDSHVLGLYPLIVYVQFQMFPYHRYQNQSIHRFDLQYFH
B15: ORF2958 (protein, listed as Staphylococcus aureus)
chain: MKMKNIAKISLLLGILATGVNTTTEKPVHAEKKPIVISENSKKLKAYYNQPSIEYKNVTGYISFIQPSIKFMNIIDGNSVNNIALIGKDKQHYHTGVHRNLNIFYVNEDKRFEGAKYSIGGITSANDKAVDLIAEARVIKEDHTGEYDYDFFPFKIDKEAMSLKEIDFKLRKYLIDNYGLYGEMSTGKITVKKKYYGKYTFELDKKLQEDRMSDVINVTDIDRIEIKVIKA
B16: CRF1763 (protein)
chain: FEATKVPHNGSTLINNALNFNEALICLSLKVNIALIIPKIATIRGIVMLGYCGICKKAPRPAITPHTNAIYRNCFKSFTPKLLLHYYT
B17: ORF2931 (protein, listed as Staphylococcus aureus)
chain: MKLKSLAVLSMSAVVLTACGNDTPKDETKSTESNTNQDTNTTKDVIALKDVKTSPEDAVKKAEETYKGQKLKGISFENSNGEWAYKVTQQKSGEESEVLVADKNKKVINKKTEKEDTMNENDNFKYSDAIDYKKAIKEGQKEFDGDIKEWSLEKDDGKLVYNIDLKKGNKKQEVTVDAKNGKVLKSEQDH
B18: CRF0145 (protein)
chain: FKYKKNRKIPSIMMQQIKITILYSYLTINKWEYLLNITPNKTVLPATGQKELILAVFTMFKVSKSFSLILTYFFGISQLIIGKKSANHVLTKSIIKYSSLYLIILYLGFLLIFSVSQSNVSTSFQLVLY
B19: ORF1848 (protein, listed as Staphylococcus aureus)
chain: MKLKSFVTATLALGLLSTVGAALPSHEASADSNNGYKEMTVDGYHTVPYTISVDGITALHRTYFIFPENKNVLYQEIDSKVKNELASQRGVTTEKINNAQTATYTLTLNDGNKKVVNLKKNDDAKNSIDPSTIKQIQIVVK
B20: CRF2155 (protein)
chain: ILSAALSTPALLNNTSILPNCSFMSDTKSTTCCSLALSTLYAFALSPLLLILSTVSDTASAMSTANTYAPY

Each molecule was assayed on antibodies in human patient sera (assay: Western blot reactivity of selected clones with human sera). Details: 10 to 30 different human patient sera.
Type: binding
Protocol: For Western blot analysis approximately 10 to 20 μg of total cellular protein was separated by 10% SDS-PAGE and blotted onto HybondC membrane (Amersham Pharmacia Biotech, England). The LamB or FhuA fusion proteins were detected using human serum as the primary antibody at a dilution of 1:5000 and anti human IgG antibodies coupled to HRP at a dilution of 1:5000 as secondary antibodies. Detection was performed using the ECL detection kit (Amersham Pharmacia Biotech, England). Alternatively, rabbit anti FhuA or mouse anti LamB antibodies were used as primary antibodies in combination with the respective secondary antibodies coupled to HRP for the detection of the fusion proteins.
Subsequent sequencing of a larger number of randomly picked clones (500 to 800 per screen) led to the identification of the gene and the corresponding peptide or protein sequence that was specifically recognized by the human patient serum used for screening. The frequency with which a specific clone is selected reflects at least in part the abundance and/or affinity of the specific antibodies in the serum used for selection and recognizing the epitope presented by this clone. […] All clones that are presented in Table 2 have been verified by Western blot analysis using whole cellular extracts from single clones to show the indicated reactivity with the pool of human serum used in the screen.
10 to 30 different human patient sera were subsequently used to evaluate the presence of antibodies against the selected immunogenic peptide sequences that have been discovered in the screen according to the present invention. To eliminate possible cross-reactivity with proteins expressed by E. coli, all sera were pre-adsorbed with a total cellular lysate of E. coli DHa cells expressing FhuA protein.
This analysis is summarized in Table 2 and as an example shown in FIG. 4 and is indicative of the validity of the present screen.

Row | Molecule | antibodies against selected epitope in patients
1 | IgG binding protein A [compound 2548] | production of antibodies in a large number of patients
2 | B1 | production of antibodies in a large number of patients
3 | B2 | production of antibodies in a large number of patients

Same assay, conditions: clone and its aa region are named in the cell; prefix A/B/C = screen the clone came from

Row | Molecule | Serum reactivity with relevant region (positive/total)
4 | B3 | A: SEFAQ50(15-57): 5/12
5 | B4 | B: SELAG77(123-142): 12/12
6 | B5 | B: SELAE27(22-51): 5/12
7 | B6 | B: SELAD21(36-61): 5/12
8 | B7 | B: SELAH01(26-49): 5/12
9 | B8 | B: SELAB26(27-60): 5/12
10 | B1 | B: SELAA47(238-259): 12/12
11 | B9 | B: SELAE25(23-54): 2/12
12 | B10 | C: GSBBM60(65-84): 1/1
13 | B11 | C: GSBBL39(63-86): 1/1

Same assay, conditions: positive sera / total sera tested; clone and its aa region named in the cell

Row | Molecule | Serum reactivity with relevant region (positive/total)
14 | ARF0280 (VYMLSSTRFIVRWYNNCNKSTNIINERSSGSIKSDGNSSCFFK) | SALAM59(25-43): 1/1
15 | B12 | SALAQ25(40-56): 1/1
16 | B13 | GSBXC92(52-67): 2/11
17 | B14 | GSBXF31(19-34): 1/7
18 | B15 | F: SALBB59(154-168): 4/41
19 | B16 | C: GSBYI30(1-22): 1/1
20 | B17 | E: GSBZA13(22-37): 7/41
21 | B18 | SALAZ40(81-90): 2/12
22 | B19 | E: GSBZB15(75-90): 6/41
23 | B20 | SALAQ54(54-66): 1/12
